Read-outs that look alike come from different tables or passages of the source.
How the values were obtained:
biotinylated eboIZN39IQ [1] = target: biotinylated eboIZN39IQ
biotinylated eboIZN39IQ [2] = assay: SPR (ProteOn XPR36), eboC24 flowed over biotin-eboIZN39IQ, pH 5.8

B1: eboC24 (peptide)
peptide: IEPHDWTKNITDKIDQIIHDFVDK
modifications: not checked
- Kd (biotinylated eboIZN39IQ [1]): 310 nM
- Kd (biotinylated eboIZN39IQ [2]): 300 nM

— patent US20170247418A1
